Laboratory results as given in US20220098303A1 (GlaxoSmithKline, published 2022).

Target: cynomolgus PD-1 (cynomolgus)
Test: kinetic analysis (bio-light interferometry)

Kd: 118 pM
B1: Pembrolizumab (antibody, V domains shown)
VH: QVQLVQSGVEVKKPGASVKVSCKASGYTFTNYYMYWVRQAPGQGLEWMGGINPSNGGTNFNEKFKNRVTLTTDSSTTTAYMELKSLQFDDTAVYYCARRDYRFDMGFDYWGQGTTVTVSS
VL: EIVLTQSPATLSLSPGERATLSCRASKGVSTSGYSYLHWYQQKPGQAPRLLIYLASYLESGVPARFSGSGSGTDFTLTISSLEPEDFAVYYCQHSRDLPLTFGGGTKVEIKR
notes: also called MK3475
